Read-outs that look alike come from different tables or passages of the source.
Key:
[1] = molecular target: human SIRPα-isoform 2-his protein (human); test: indirect ELISA on coated human SIRPα-isoform 2-his, OD(450-630); curve not visible in the scan
[2] = molecular target: T1, cynomolgus SIRPα-his protein (cynomolgus); test: indirect ELISA on coated cynomolgus SIRPα-his, OD(450-630); curve not visible in the scan
T1 construct: also called Cyno SIRPα-his; monkey SIRPα
T1 chain: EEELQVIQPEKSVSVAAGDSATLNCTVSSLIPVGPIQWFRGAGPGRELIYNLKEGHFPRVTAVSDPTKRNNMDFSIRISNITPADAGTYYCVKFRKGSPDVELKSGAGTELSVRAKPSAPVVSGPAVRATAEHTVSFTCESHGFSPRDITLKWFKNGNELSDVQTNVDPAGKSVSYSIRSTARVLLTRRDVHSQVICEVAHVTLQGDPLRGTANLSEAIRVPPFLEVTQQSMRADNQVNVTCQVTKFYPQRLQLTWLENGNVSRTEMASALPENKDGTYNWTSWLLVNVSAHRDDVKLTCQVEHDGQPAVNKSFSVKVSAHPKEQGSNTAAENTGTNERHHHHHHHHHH

[3] = molecular target: T2, human SIRPα-V8-his protein (human, UniProt P78324 31-370, limits assumed); test: indirect ELISA on coated human SIRPα-V8-his, OD(450-630); curve flat at the baseline (see non_binding)
T2 sequence (P78324 other isoform, or with tags, fused parts or gaps limits assumed): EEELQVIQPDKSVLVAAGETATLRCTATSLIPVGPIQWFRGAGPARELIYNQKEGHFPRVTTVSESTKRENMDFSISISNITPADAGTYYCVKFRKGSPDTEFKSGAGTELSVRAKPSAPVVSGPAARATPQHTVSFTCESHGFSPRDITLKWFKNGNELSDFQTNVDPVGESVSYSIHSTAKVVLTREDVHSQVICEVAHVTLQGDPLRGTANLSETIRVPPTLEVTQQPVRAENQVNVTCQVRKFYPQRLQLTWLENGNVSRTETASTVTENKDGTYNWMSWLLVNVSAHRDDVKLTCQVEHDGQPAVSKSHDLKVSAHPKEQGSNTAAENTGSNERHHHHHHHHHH

[4] = molecular target: T1, cynomolgus SIRPα-his protein; test: indirect ELISA on coated cynomolgus SIRPα-his, OD(450-630); curve not visible in the scan
[5] = molecular target: T3, full length human SIRPα on cell membranes (HEK293-SIRPα cells; 293F-SIRPα cells) (human, UniProt P78324 31-504); test: cell based binding FACS on 293F cells expressing human SIRPα, MFI; curve not visible in the scan
T3 construct: whole, on cells; also called cell surface human SIRPα; cell surface SIRPα
T3 sequence (P78324 31-504): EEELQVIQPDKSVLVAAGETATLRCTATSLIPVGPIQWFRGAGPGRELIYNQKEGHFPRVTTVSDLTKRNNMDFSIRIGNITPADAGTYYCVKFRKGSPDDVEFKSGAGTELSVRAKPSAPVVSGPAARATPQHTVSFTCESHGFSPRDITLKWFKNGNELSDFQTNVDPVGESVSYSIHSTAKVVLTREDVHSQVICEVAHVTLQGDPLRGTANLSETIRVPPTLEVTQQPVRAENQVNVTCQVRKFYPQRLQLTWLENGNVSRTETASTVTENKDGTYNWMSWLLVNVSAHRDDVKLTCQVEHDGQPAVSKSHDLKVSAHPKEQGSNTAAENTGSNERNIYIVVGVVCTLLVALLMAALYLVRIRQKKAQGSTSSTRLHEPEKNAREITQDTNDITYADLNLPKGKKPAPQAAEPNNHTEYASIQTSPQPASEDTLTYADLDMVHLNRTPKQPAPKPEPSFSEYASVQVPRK

human SIRPα-his protein [6] = molecular target: T4, human SIRPα-his protein (human, UniProt P78324 31-370); test: competitive ELISA on coated human SIRPα-his; blocked ligand: biotin-labeled human CD47-his, OD(450-630); curve not assignable in the scan
T4 sequence (P78324 other isoform, or with tags, fused parts or gaps limits assumed): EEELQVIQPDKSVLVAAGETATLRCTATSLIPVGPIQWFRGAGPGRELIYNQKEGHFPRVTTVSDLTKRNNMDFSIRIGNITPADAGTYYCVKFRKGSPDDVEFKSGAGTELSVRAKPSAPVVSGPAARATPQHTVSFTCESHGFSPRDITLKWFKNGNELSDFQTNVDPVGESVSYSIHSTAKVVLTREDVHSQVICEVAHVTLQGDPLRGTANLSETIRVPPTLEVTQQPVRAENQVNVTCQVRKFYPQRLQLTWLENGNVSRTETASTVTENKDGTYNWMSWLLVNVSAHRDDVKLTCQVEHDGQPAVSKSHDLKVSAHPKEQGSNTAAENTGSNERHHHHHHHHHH

human SIRPβ-his protein = human SIRPβ-his protein (human, UniProt O00241 30-371); test: SPR (Biacore T200); antibody captured on Protein A chip, human SIRPβ-his flowed from 200 nM; 1:1 Langmuir fit
Sequence of human SIRPβ-his protein (O00241 other isoform, or with tags, fused parts or gaps limits assumed): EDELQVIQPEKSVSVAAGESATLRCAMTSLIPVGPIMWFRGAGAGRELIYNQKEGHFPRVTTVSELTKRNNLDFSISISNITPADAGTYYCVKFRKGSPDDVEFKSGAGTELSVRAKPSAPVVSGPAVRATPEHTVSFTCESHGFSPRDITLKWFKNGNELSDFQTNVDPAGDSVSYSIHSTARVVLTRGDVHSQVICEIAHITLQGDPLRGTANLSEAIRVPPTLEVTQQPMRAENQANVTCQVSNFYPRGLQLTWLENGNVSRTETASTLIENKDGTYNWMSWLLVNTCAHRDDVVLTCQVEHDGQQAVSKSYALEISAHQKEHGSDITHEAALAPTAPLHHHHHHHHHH

[7] = molecular target: T3, full length human SIRPα on cell …; test: cell based binding FACS on 293F cells expressing human SIRPα, MFI; curve not visible in the scan; remark: listed apart in the source
[8] = molecular target: T5, full length human SIRPβ on cell membranes (HEK293-SIRPβ cells; 293F cells expressing human SIRPβ) (human, UniProt O00241 30-398); test: cell based binding FACS on HEK293-SIRPβ cells, MFI
T5 construct: whole, on cells; also called cell surface human SIRPβ
T5 sequence (O00241 30-398): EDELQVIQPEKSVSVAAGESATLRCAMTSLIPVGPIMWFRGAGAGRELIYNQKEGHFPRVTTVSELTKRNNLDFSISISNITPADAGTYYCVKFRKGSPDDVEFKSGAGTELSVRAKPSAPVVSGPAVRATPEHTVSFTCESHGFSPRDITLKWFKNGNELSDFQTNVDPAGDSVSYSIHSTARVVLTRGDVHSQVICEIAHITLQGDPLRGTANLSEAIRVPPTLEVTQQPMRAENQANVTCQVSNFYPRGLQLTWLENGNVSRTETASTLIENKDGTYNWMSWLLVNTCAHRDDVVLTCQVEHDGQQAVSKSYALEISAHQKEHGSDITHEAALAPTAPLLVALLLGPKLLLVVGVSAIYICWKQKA

[9] = molecular target: human SIRPα-isoform 2-his protein (human); test: indirect ELISA on coated human SIRPα-isoform 2-his, OD(450-630); curve flat at the baseline (see non_binding)
[10] = molecular target: T3, full length human SIRPα on cell …; test: cell based blocking FACS on 293F-SIRPα cells; blocked ligand: biotin-labeled human CD47-Fc, MFI
[11] = molecular target: T2, human SIRPα-V8-his protein; test: indirect ELISA on coated human SIRPα-V8-his, OD(450-630); curve not visible in the scan
[12] = molecular target: human SIRPα-isoform 2-his protein (human); test: indirect ELISA on coated human SIRPα-isoform 2-his, OD(450-630); curve not visible in the scan; remark: listed apart in the source
[13] = molecular target: T5, full length human SIRPβ on cell …; test: cell based binding FACS on 293F cells expressing human SIRPβ, MFI; curve not visible in the scan
[14] = molecular target: T6, human SIRPα protein (soluble, used on 293F-CD47 cells) (human, UniProt P78324 31-370, limits assumed); test: cell based blocking FACS on 293F-CD47 cells; soluble human SIRPα protein blocked from binding cell surface human CD47, MFI; curve not visible in the scan
T6 sequence (P78324 31-370 limits assumed): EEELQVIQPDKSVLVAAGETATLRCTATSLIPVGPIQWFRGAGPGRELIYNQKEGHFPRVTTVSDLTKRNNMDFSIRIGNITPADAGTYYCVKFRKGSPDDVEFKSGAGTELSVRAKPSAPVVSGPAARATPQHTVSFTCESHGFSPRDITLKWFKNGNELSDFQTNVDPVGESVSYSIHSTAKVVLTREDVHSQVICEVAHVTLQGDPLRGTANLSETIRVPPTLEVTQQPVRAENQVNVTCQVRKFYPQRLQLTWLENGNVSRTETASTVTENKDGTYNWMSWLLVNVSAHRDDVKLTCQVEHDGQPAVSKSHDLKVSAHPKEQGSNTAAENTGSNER

[15] = molecular target: T6, human SIRPα protein (soluble, used on …); test: as above; remark: listed apart in the source
human SIRPα-his protein [16] = molecular target: T4, human SIRPα-his protein; test: SPR (Biacore T200); antibody captured on Protein A chip, human SIRPα-his flowed from 200 nM; 1:1 Langmuir fit
[17] = molecular target: T3, full length human SIRPα on cell …; test: cell based binding FACS on HEK293-SIRPα cells, MFI
[18] = molecular target: T3, full length human SIRPα on cell …; test: cell based blocking FACS on 293F-SIRPα cells; blocked ligand: human CD47 protein (CD47-Fc), MFI; curve not visible in the scan
[19] = molecular target: T7, recombinant human SIRPα-Fc protein (human, biotin-labeled (sites not given)); test: capture ELISA, antibody captured on anti-mouse IgG F(ab')2, biotin-labeled human SIRPα-Fc in solution, OD(450-630); curve not visible in the scan
T7 construct: also called biotin-labeled human SIRPα-Fc protein
T7 sequence (chain, as listed by the source limits assumed): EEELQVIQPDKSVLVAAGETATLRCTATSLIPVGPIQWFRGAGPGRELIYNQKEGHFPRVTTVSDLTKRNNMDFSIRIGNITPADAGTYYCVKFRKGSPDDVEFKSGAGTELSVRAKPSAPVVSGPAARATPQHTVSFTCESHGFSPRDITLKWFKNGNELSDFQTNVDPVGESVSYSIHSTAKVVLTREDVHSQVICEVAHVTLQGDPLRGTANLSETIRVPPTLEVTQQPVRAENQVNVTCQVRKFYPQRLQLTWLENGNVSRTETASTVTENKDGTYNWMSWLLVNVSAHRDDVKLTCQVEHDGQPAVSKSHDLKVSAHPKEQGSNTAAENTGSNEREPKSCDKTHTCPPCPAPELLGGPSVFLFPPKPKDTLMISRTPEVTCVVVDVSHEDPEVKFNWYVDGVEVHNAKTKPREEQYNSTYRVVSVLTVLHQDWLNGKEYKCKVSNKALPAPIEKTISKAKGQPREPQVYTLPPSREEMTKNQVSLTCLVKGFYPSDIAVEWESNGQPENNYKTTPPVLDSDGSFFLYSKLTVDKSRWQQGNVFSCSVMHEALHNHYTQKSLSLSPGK

[20] = molecular target: T5, full length human SIRPβ on cell …; test: cell based binding FACS on 293F cells expressing human SIRPβ, MFI; curve not visible in the scan; remark: listed apart in the source
[21] = molecular target: T3, full length human SIRPα on cell …; test: cell based blocking FACS on 293F-SIRPα cells; blocked ligand: human CD47 protein (CD47-Fc), MFI; curve not visible in the scan; remark: listed apart in the source

Sequence of human SIRPα-isoform 2-his protein (human) (chain, as listed by the source limits assumed): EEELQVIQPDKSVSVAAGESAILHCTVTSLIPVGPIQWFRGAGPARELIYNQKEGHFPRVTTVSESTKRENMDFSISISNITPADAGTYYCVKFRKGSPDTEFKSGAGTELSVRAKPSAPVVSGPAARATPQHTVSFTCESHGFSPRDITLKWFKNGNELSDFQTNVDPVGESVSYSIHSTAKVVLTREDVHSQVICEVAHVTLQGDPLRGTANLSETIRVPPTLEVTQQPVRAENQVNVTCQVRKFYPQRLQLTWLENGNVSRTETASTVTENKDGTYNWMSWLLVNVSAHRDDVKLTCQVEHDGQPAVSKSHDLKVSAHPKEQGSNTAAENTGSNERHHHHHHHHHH

B1: BI-765063 (antibody, human IgG4 S228P, kappa, V domains shown)
VH: EVQLVQSGAEVKKPGESLRISCKASGYSFTSYWVHWVRQMPGKGLEWMGNIDPSDSDTHYSPSFQGHVTLSVDKSISTAYLQLSSLKASDTAMYYCVRGGTGTLAYFAYWGQGTLVTVSS
VL: DVVMTQSPLSLPVTLGQPASISCRSSQSLVHSYGNTYLYWFQQRPGQSPRLLIYRVSNRFSGVPDRFSGSGSGTDFTLKISRVEAEDVGVYYCFQGTHVPYTFGGGTKVEIKR
notes: also called BM5
EC50 [1]: ~4000 nM | EC50 [2]: ~16.6 nM | EC50 [3]: 12.2 nM | EC50 [4]: ~7840 nM | EC50 [5]: 0.585 nM | IC50 (human SIRPα-his protein [6]): 3.92 nM | Kd (human SIRPβ-his protein): 30.5 nM | koff (human SIRPβ-his protein): 0.00928 s⁻¹ | kon (human SIRPβ-his protein): 304000 M⁻¹ s⁻¹ | EC50 [7]: 0.545 nM | EC50 [8]: 0.509 nM | EC50 [9]: ~11 nM | IC50 [10]: 0.338 nM | EC50 [11]: ~167 nM | EC50 [12]: 15.2 nM | EC50 [13]: 0.482 nM | IC50 [14]: 0.361 nM | IC50 [15]: 0.386 nM | Kd (human SIRPα-his protein [16]): 26.7 nM | koff (human SIRPα-his protein [16]): 0.00775 s⁻¹ | kon (human SIRPα-his protein [16]): 290000 M⁻¹ s⁻¹ | EC50 [17]: 0.633 nM | IC50 [18]: 1.83 nM | EC50 [19]: 0.249 nM | EC50 [20]: 0.46 nM | IC50 [21]: 1.9 nM
